According to the RNAGym collection of RNA variant scans (doi:10.7554/elife.80360):

B1: HDV Ribozyme (parent)
chain: GGCCGGCAUGGUCCCAGCCUCCUCGCUGGCGCCGGCUGGGCAACAUUCCGAGGGGACCGUCCCCUCGGUAAUGGCGAAUGGGACCCA

Variants of: B1
Assay: self-cleavage, relative activity (ratio to wild type); higher = more cleavage; co-transcriptional

Variant	self-cleavage
GGCCGGCAUGGUCCCAGCCUCCUCGCUGGCGCCGGCUGUGCAACAUUCCGAGGGGACCGUCCCCUCGGUAAUAGCGAAUGGGACCCA [G39U G73A]	0.249
GGCCGGCAUGGUCCCAGCCUCCUCGCUGGCGCCGGCUGUGCAACAUUCCGAGGGGACCGUCCCCUCGGUAAGGGCGAAUGGGACCCA [G39U U72G]	0.284
GGCCGGCAUGGUCCCAGCCUCCUCGCUGGCGCCGGCUGGACAACAUUCGGAGGGGACCGUCCCCUCGGUAAUGGCGAAUGGGACCCA [G40A C49G]	0.944
GGCCGGCAUGGUCCCAGCCUCCUCGCUGGCGCCGGCUGUGCAACAUUCCGAGGGGACCGUCCCCUCGGUAAUGGCGAAUGGGAACCA [G39U C84A]	0.495
GGCCGGCAUGGUCCCAGCCUCCUCGCUGGCGCCGGCUGUGCAACAUUCCGAGGGGACCGUCCCCUCGGUAAUGGCGAAUGGGAGCCA [G39U C84G]	0.348
GGCCGGCAUGGUCCCAGCCUCCUCGCUGGCGCCGGCUGGACAACAUUCCGAGGGGACCGUCCCCUAGGUAAUGGCGAAUGGGACCCA [G40A C66A]	0.808
GGCCGGCAUGGUCCCAGCCUCCUCGCUGGCGCCGGCUGUGCAACAUUCCGAGGGGACUGUCCCCUCGGUAAUGGCGAAUGGGACCCA [G39U C58U]	0.716
GGCCGGCAUGGUCCCAGCCUCCUCGCUGGCGCCGGCUGGACAACAUUCCGAAGGGACCGUCCCCUCGGUAAUGGCGAAUGGGACCCA [G40A G52A]	0.858
GGCCGGCAUGGUCCCAGCCUCCUCGCUGGCGCCGGCUGGACAACAUUCCGAUGGGACCGUCCCCUCGGUAAUGGCGAAUGGGACCCA [G40A G52U]	0.683
GGCCGGCAUGGUCCCAGCCUCCUCGCUGGCGCCGGCUGGACAACGUUCCGAGGGGACCGUCCCCUCGGUAAUGGCGAAUGGGACCCA [G40A A45G]	0.815
GGCCGGCAUGGUCCCAGCCUCCUCGCUGGCGCCGGCUGGACAACAUUCCGAGGGGACCGUCCCCUCGGUAAUGGCUAAUGGGACCCA [G40A G76U]	0.843
GGCCGGCAUGGUCCCAGCCUCCUCGCUGGCGCCGGCUGGACAACAUUCCGAGGGGACCGUCCCCUCGGUAAUGGCCAAUGGGACCCA [G40A G76C]	0.947
GGCCGGCAUGGUCCCAGCCUCCUCGCUGGCGCCGGCUGGACAACAUUCCGAGGGGACCGUCCCCUCGGUAAUGGCGAAUGGGAACCA [G40A C84A]	0.917
GGCCGGCAUGGUCCCAGCCUCCUCGCUGGCGCCGGCUGUGCAACAUUCCGAGGGGACCGUCCCCACGGUAAUGGCGAAUGGGACCCA [G39U U65A]	0.627
GGCCGGCAUGGUCCCAGCCUCCUCGCUGGCGCCGGCUGUGCAACAUUCCGAGGGGACCAUCCCCUCGGUAAUGGCGAAUGGGACCCA [G39U G59A]	0.636
GGCCGGCAUGGUCCCAGCCUCCUCGCUGGCGCCGGCUGUGCAACAUUCCGAGGGGACCGUCCCCUCGGUAAUGGCGAAUGGCACCCA [G39U G82C]	0.168
GGCCGGCAUGGUCCCAGCCUCCUCGCUGGCGCCGGCUGUGCAACAUUCCGAGGGGACCGCCCCCUCGGUAAUGGCGAAUGGGACCCA [G39U U60C]	0.772
GGCCGGCAUGGUCCCAGCCUCCUCGCUGGCGCCGGCUGUGCAACAUUCCGAGGGGACCGACCCCUCGGUAAUGGCGAAUGGGACCCA [G39U U60A]	0.623
GGCCGGCAUGGUCCCAGCCUCCUCGCUGGCGCCGGCUGUGCAACAUUCCGAGGGGACCGUCCGCUCGGUAAUGGCGAAUGGGACCCA [G39U C63G]	0.507
GGCCGGCAUGGUCCCAGCCUCCUCGCUGGCGCCGGCUGUGCAACAUUCCGAGGGGACCGUUCCCUCGGUAAUGGCGAAUGGGACCCA [G39U C61U]	0.58
GGCCGGCAUGGUCCCAGCCUCCUCGCUGGCGCCGGCUGUGCAACAUUCCGAGGCGACCGUCCCCUCGGUAAUGGCGAAUGGGACCCA [G39U G54C]	0.76
GGCCGGCAUGGUCCCAGCCUCCUCGCUGGCGCCGGCUGGACAACACUCCGAGGGGACCGUCCCCUCGGUAAUGGCGAAUGGGACCCA [G40A U46C]	0.525

Variant	self-cleavage
GGCCGGCAUGGUCCCAGCCUCCUCGCUGGCGCCGGCUGGACAACAUUCCGAGGGGACCGUCCCCUCGGUAGUGGCGAAUGGGACCCA [G40A A71G]	0.748
GGCCGGCAUGGUCCCAGCCUCCUCGCUGGCGCCGGCUGUGCAACAUUCCGAGGGGACCGUCCCCUCGGUAAUGGCCAAUGGGACCCA [G39U G76C]	0.724
GGCCGGCAUGGUCCCAGCCUCCUCGCUGGCGCCGGCUGUGCAACAUUCCGAGGGGACCGUCCCCUCGGUAAUGGCAAAUGGGACCCA [G39U G76A]	0.67
GGCCGGCAUGGUCCCAGCCUCCUCGCUGGCGCCGGCUGGACAACAUUCCGAGGGGACCGUCCCCUCGGUAAUUGCGAAUGGGACCCA [G40A G73U]	0.554
GGCCGGCAUGGUCCCAGCCUCCUCGCUGGCGCCGGCUGUCCAACAUUCCGAGGGGACCGUCCCCUCGGUAAUGGCGAAUGGGACCCA [G39U G40C]	0.451
GGCCGGCAUGGUCCCAGCCUCCUCGCUGGCGCCGGCUGUACAACAUUCCGAGGGGACCGUCCCCUCGGUAAUGGCGAAUGGGACCCA [G39U G40A]	0.807
GGCCGGCAUGGUCCCAGCCUCCUCGCUGGCGCCGGCUGUGCAACAUUCCGAGUGGACCGUCCCCUCGGUAAUGGCGAAUGGGACCCA [G39U G53U]	0.587
GGCCGGCAUGGUCCCAGCCUCCUCGCUGGCGCCGGCUGGACAACAUUCCGAGGGGACCGUCCCCACGGUAAUGGCGAAUGGGACCCA [G40A U65A]	0.914
GGCCGGCAUGGUCCCAGCCUCCUCGCUGGCGCCGGCUGGACAACAUUCCGAGGGGACCGUCGCCUCGGUAAUGGCGAAUGGGACCCA [G40A C62G]	0.432
GGCCGGCAUGGUCCCAGCCUCCUCGCUGGCGCCGGCUGGACACCAUUCCGAGGGGACCGUCCCCUCGGUAAUGGCGAAUGGGACCCA [G40A A43C]	0.601
GGCCGGCAUGGUCCCAGCCUCCUCGCUGGCGCCGGCUGUGCAACAUUCCGAGGGGACCGUCCCCUCGGUAAUGCCGAAUGGGACCCA [G39U G74C]	0.23
GGCCGGCAUGGUCCCAGCCUCCUCGCUGGCGCCGGCUGUGCAACAUUCCGAGGGGACCGUCCCCUCGGUAAUGACGAAUGGGACCCA [G39U G74A]	0.669
GGCCGGCAUGGUCCCAGCCUCCUCGCUGGCGCCGGCUGUGCAACAUUCCGAGGGGACCGUCCCCUCGGUAAUGUCGAAUGGGACCCA [G39U G74U]	0.382
GGCCGGCAUGGUCCCAGCCUCCUCGCUGGCGCCGGCUGGACAACAUUCCGAGGGGACCGUCCCCUCGGUAAUGGCGGAUGGGACCCA [G40A A77G]	1.05
GGCCGGCAUGGUCCCAGCCUCCUCGCUGGCGCCGGCUGUGCAACAUUCCGAGGGGACCGUCCCCUCGGUAAUGGCGAAUGGGACUCA [G39U C85U]	0.674
GGCCGGCAUGGUCCCAGCCUCCUCGCUGGCGCCGGCUGUGCAACAUUCCGAGGGGACCGUCCCCUCCGUAAUGGCGAAUGGGACCCA [G39U G67C]	0.746
GGCCGGCAUGGUCCCAGCCUCCUCGCUGGCGCCGGCUGUGCAACAUUCCGAGGGGACCGUCCCCUCAGUAAUGGCGAAUGGGACCCA [G39U G67A]	0.698
GGCCGGCAUGGUCCCAGCCUCCUCGCUGGCGCCGGCUGUGCAACAUUCCGAGGGGACCGUCCCCUCGGGAAUGGCGAAUGGGACCCA [G39U U69G]	0.635
GGCCGGCAUGGUCCCAGCCUCCUCGCUGGCGCCGGCUGGACAACAUUCCGGGGGGACCGUCCCCUCGGUAAUGGCGAAUGGGACCCA [G40A A51G]	0.749
GGCCGGCAUGGUCCCAGCCUCCUCGCUGGCGCCGGCUGGACAACAUUCCGAGGGGACCGUCCCCUCGGUUAUGGCGAAUGGGACCCA [G40A A70U]	0.868
GGCCGGCAUGGUCCCAGCCUCCUCGCUGGCGCCGGCUGGACAACAUUCCGAGGGGACCGUCCCCUCGGUGAUGGCGAAUGGGACCCA [G40A A70G]	0.914
GGCCGGCAUGGUCCCAGCCUCCUCGCUGGCGCCGGCUGGACAACAUUCCGAGGGCACCGUCCCCUCGGUAAUGGCGAAUGGGACCCA [G40A G55C]	1.01

Variant	self-cleavage
GGCCGGCAUGGUCCCAGCCUCCUCGCUGGCGCCGGCUGGACAACAUUCCGAGGGGACCGUCCCCUCGGUAAUGGCGAAUGGUACCCA [G40A G82U]	0.198
GGCCGGCAUGGUCCCAGCCUCCUCGCUGGCGCCGGCUGGACAACAUUCCGAGGGGACCGUCCCCUCGGUAAUGGCGAAUGGCACCCA [G40A G82C]	0.0665
GGCCGGCAUGGUCCCAGCCUCCUCGCUGGCGCCGGCUGGACGACAUUCCGAGGGGACCGUCCCCUCGGUAAUGGCGAAUGGGACCCA [G40A A42G]	0.475
GGCCGGCAUGGUCCCAGCCUCCUCGCUGGCGCCGGCUGUGCAACAUUCCGAGGGGACCGUCCCCUCGGUAAUGGCGAAUGAGACCCA [G39U G81A]	0.228
GGCCGGCAUGGUCCCAGCCUCCUCGCUGGCGCCGGCUGUGCAACAUUCCGAGGGGACCGUCCCCUCGGUAAUGGCGAAUGGGACCGA [G39U C86G]	0.784
GGCCGGCAUGGUCCCAGCCUCCUCGCUGGCGCCGGCUGGACAACAUUCCGAGGGGACCGUGCCCUCGGUAAUGGCGAAUGGGACCCA [G40A C61G]	1.17
GGCCGGCAUGGUCCCAGCCUCCUCGCUGGCGCCGGCUGUGCAACAUUCCGAGGGCACCGUCCCCUCGGUAAUGGCGAAUGGGACCCA [G39U G55C]	0.698
GGCCGGCAUGGUCCCAGCCUCCUCGCUGGCGCCGGCUGUGCAACAUUACGAGGGGACCGUCCCCUCGGUAAUGGCGAAUGGGACCCA [G39U C48A]	0.658
GGCCGGCAUGGUCCCAGCCUCCUCGCUGGCGCCGGCUGUGCAACAUUGCGAGGGGACCGUCCCCUCGGUAAUGGCGAAUGGGACCCA [G39U C48G]	0.862
GGCCGGCAUGGUCCCAGCCUCCUCGCUGGCGCCGGCUGUGCAACAUUUCGAGGGGACCGUCCCCUCGGUAAUGGCGAAUGGGACCCA [G39U C48U]	0.594
GGCCGGCAUGGUCCCAGCCUCCUCGCUGGCGCCGGCUGGAUAACAUUCCGAGGGGACCGUCCCCUCGGUAAUGGCGAAUGGGACCCA [G40A C41U]	0.87
GGCCGGCAUGGUCCCAGCCUCCUCGCUGGCGCCGGCUGGACAACAUUCCGAGGGGACCGUCCCCUCGGUAAUGGCGAAUGGGACCUA [G40A C86U]	0.989
GGCCGGCAUGGUCCCAGCCUCCUCGCUGGCGCCGGCUGGACAACAUUCCGAGGGGACCGUCCCCUCGGUAAUGGCGAAUGGGACCGA [G40A C86G]	1.01
GGCCGGCAUGGUCCCAGCCUCCUCGCUGGCGCCGGCUGGACAACAUUCCGAGGCGACCGUCCCCUCGGUAAUGGCGAAUGGGACCCA [G40A G54C]	0.926
GGCCGGCAUGGUCCCAGCCUCCUCGCUGGCGCCGGCUGGACAACAUUCCGAGGGGACCAUCCCCUCGGUAAUGGCGAAUGGGACCCA [G40A G59A]	0.87
GGCCGGCAUGGUCCCAGCCUCCUCGCUGGCGCCGGCUGGACAACAUUCCGAGGGGACCGUCCCCUCGGUAAUGGCGAAUGGGACCCU [G40A A87U]	1.02
GGCCGGCAUGGUCCCAGCCUCCUCGCUGGCGCCGGCUGGACAACAUUCCGAGGGGACCGUCCCCUCGGUAAUGUCGAAUGGGACCCA [G40A G74U]	0.732
GGCCGGCAUGGUCCCAGCCUCCUCGCUGGCGCCGGCUGGACAACAUUCCGAGGGGACCGUCCCCUCGGUAAUGCCGAAUGGGACCCA [G40A G74C]	0.485
GGCCGGCAUGGUCCCAGCCUCCUCGCUGGCGCCGGCUGGACAACAUUCCAAGGGGACCGUCCCCUCGGUAAUGGCGAAUGGGACCCA [G40A G50A]	0.884
GGCCGGCAUGGUCCCAGCCUCCUCGCUGGCGCCGGCUGUGCAACAUUCCCAGGGGACCGUCCCCUCGGUAAUGGCGAAUGGGACCCA [G39U G50C]	0.598
